According to the supplement of paper PMC9112550, “Optimization of the antimicrobial peptide Bac7 by deep mutational scanning” (BMC Biology, 2022):

test system: Escherichia coli TOP10; test: shrunken log2 fold change of peptide-encoding DNA abundance (4.5 h post-induction vs induction); higher = less antimicrobial activity (less host growth inhibition); settings: time post-induction: 4.5 h; library: site-saturation at positions 5, 18, 19, 20
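Also: peptides expressed intracellularly from a pBAD plasmid library in pooled LB shake-flask culture, induced with 0.3% L-arabinose, DNA abundance read by NGS, three biological replicates, DESeq2 with apeglm shrinkage.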

Sequence	shrunken log2 fold change
RRIRFRPPRLPRPRPRPLDFPRP	-0.325
RRIRERPPRLPRPRPRPAARPRP	0.226
RRIRYRPPRLPRPRPRPDGRPRP	-0.154
RRIRQRPPRLPRPRPRPLVAPRP	0.034
RRIRSRPPRLPRPRPRPQTTPRP	-0.237
RRIRSRPPRLPRPRPRPHRTPRP	-0.0768
RRIRQRPPRLPRPRPRPYQHPRP	-0.515
RRIRIRPPRLPRPRPRPCSEPRP	-0.0312
RRIRCRPPRLPRPRPRPWGGPRP	0.36
RRIRPRPPRLPRPRPRPKWIPRP	-0.465
RRIRERPPRLPRPRPRPMGMPRP	-0.00992
RRIRDRPPRLPRPRPRPQFGPRP	-0.36
RRIRMRPPRLPRPRPRPESNPRP	0.102
RRIRERPPRLPRPRPRPVPQPRP	-0.195
RRIRKRPPRLPRPRPRPFQWPRP	0.0233
RRIRGRPPRLPRPRPRPRAYPRP	0.338
RRIRYRPPRLPRPRPRPNVAPRP	-0.0308
RRIRNRPPRLPRPRPRPYAFPRP	0.0147
RRIRDRPPRLPRPRPRPLLDPRP	0.17
RRIRRRPPRLPRPRPRPYHEPRP	0.016
RRIRNRPPRLPRPRPRPYMKPRP	-0.03
RRIRFRPPRLPRPRPRPKWEPRP	0.223
RRIRTRPPRLPRPRPRPRQSPRP	0.159
RRIRPRPPRLPRPRPRPADIPRP	0.142
RRIRLRPPRLPRPRPRPTWPPRP	0.705

Sequence	shrunken log2 fold change
RRIRLRPPRLPRPRPRPDYYPRP	-0.216
RRIRIRPPRLPRPRPRPSENPRP	-0.356
RRIRGRPPRLPRPRPRPEFFPRP	0.891
RRIRVRPPRLPRPRPRPWTKPRP	-0.106
RRIRWRPPRLPRPRPRPCDDPRP	-0.00725
RRIRGRPPRLPRPRPRPHHWPRP	0.431
RRIRNRPPRLPRPRPRPYQGPRP	-0.00804
RRIRSRPPRLPRPRPRPIADPRP	0.191
RRIRCRPPRLPRPRPRPMCPPRP	-0.312
RRIRFRPPRLPRPRPRPMDVPRP	-0.0444
RRIRTRPPRLPRPRPRPDQLPRP	-0.0381
RRIRSRPPRLPRPRPRPESMPRP	0.151
RRIRVRPPRLPRPRPRPCDLPRP	-0.238
RRIRQRPPRLPRPRPRPMKWPRP	0.273
RRIRMRPPRLPRPRPRPRCQPRP	0.00313
RRIRWRPPRLPRPRPRPKWMPRP	0.242
RRIRIRPPRLPRPRPRPEESPRP	0.124
RRIRQRPPRLPRPRPRPKKAPRP	-0.15
RRIRTRPPRLPRPRPRPLQWPRP	0.206
RRIRCRPPRLPRPRPRPNFPPRP	0.346
RRIRWRPPRLPRPRPRPIRWPRP	0.0855
RRIRARPPRLPRPRPRPREFPRP	0.441
RRIRHRPPRLPRPRPRPLTRPRP	0.0261
RRIRERPPRLPRPRPRPSYHPRP	-0.66
RRIRPRPPRLPRPRPRPQHTPRP	0.769

Sequence	shrunken log2 fold change
RRIRRRPPRLPRPRPRPGRQPRP	0.541
RRIRVRPPRLPRPRPRPEKHPRP	-0.0527
RRIRNRPPRLPRPRPRPCWVPRP	-0.0518
RRIRKRPPRLPRPRPRPFYTPRP	-0.109
RRIRKRPPRLPRPRPRPWGKPRP	0.0646
RRIRIRPPRLPRPRPRPRETPRP	0.0956
RRIRKRPPRLPRPRPRPPGVPRP	0.548
RRIRGRPPRLPRPRPRPIHFPRP	-0.252
RRIRFRPPRLPRPRPRPWHRPRP	2.08
RRIRMRPPRLPRPRPRPNYLPRP	-0.212
RRIRFRPPRLPRPRPRPTKHPRP	0.101
RRIRGRPPRLPRPRPRPDTDPRP	1.01
RRIRNRPPRLPRPRPRPCPVPRP	-0.438
RRIRRRPPRLPRPRPRPQAKPRP	0.418
RRIRIRPPRLPRPRPRPCMHPRP	-0.171
RRIRARPPRLPRPRPRPFGNPRP	-0.148
RRIRMRPPRLPRPRPRPHKLPRP	-0.0702
RRIRSRPPRLPRPRPRPQVGPRP	-0.175
RRIRVRPPRLPRPRPRPSWQPRP	-0.251
RRIRNRPPRLPRPRPRPEPEPRP	0.0273
RRIRKRPPRLPRPRPRPIERPRP	0.11
RRIRERPPRLPRPRPRPINKPRP	-0.506
RRIRYRPPRLPRPRPRPKIRPRP	0.0107
RRIRKRPPRLPRPRPRPDVRPRP	0.0826
RRIRSRPPRLPRPRPRPYNIPRP	-0.579

Sequence	shrunken log2 fold change
RRIRYRPPRLPRPRPRPRKHPRP	-0.483
RRIRCRPPRLPRPRPRPDMFPRP	-0.148
RRIRFRPPRLPRPRPRPKCYPRP	-0.233
RRIRNRPPRLPRPRPRPICQPRP	-0.0999
RRIRGRPPRLPRPRPRPAVRPRP	0.312
RRIRERPPRLPRPRPRPAFDPRP	0.107
RRIRIRPPRLPRPRPRPCYTPRP	-0.128
RRIRMRPPRLPRPRPRPMGCPRP	0.0612
RRIRMRPPRLPRPRPRPLRWPRP	1.32
RRIRLRPPRLPRPRPRPGKHPRP	-0.0923
RRIRVRPPRLPRPRPRPFYCPRP	-0.605
RRIRARPPRLPRPRPRPKIEPRP	0.173
RRIRFRPPRLPRPRPRPARQPRP	0.379
RRIRARPPRLPRPRPRPQSLPRP	0.026
RRIRYRPPRLPRPRPRPHAYPRP	-0.0226
RRIRRRPPRLPRPRPRPVQWPRP	0.143
RRIRERPPRLPRPRPRPDKEPRP	-0.0205
RRIRHRPPRLPRPRPRPHQAPRP	-0.0163
RRIRVRPPRLPRPRPRPDCHPRP	-0.296
RRIRPRPPRLPRPRPRPSQPPRP	0.122
RRIRKRPPRLPRPRPRPEGKPRP	0.201
RRIRDRPPRLPRPRPRPHIYPRP	-0.0848
RRIRWRPPRLPRPRPRPMTRPRP	0.0972
RRIRGRPPRLPRPRPRPKGQPRP	0.184
RRIRYRPPRLPRPRPRPQTPPRP	-0.203

Sequence	shrunken log2 fold change
RRIRFRPPRLPRPRPRPCVRPRP	-0.0911
RRIRHRPPRLPRPRPRPATRPRP	0.0209
RRIRSRPPRLPRPRPRPFGSPRP	-0.178
RRIRLRPPRLPRPRPRPSSIPRP	-0.245
RRIRMRPPRLPRPRPRPYVTPRP	-0.298
RRIRCRPPRLPRPRPRPACWPRP	0.219
RRIRHRPPRLPRPRPRPWGDPRP	0.0821
RRIRNRPPRLPRPRPRPSNNPRP	-0.96
RRIRPRPPRLPRPRPRPCGSPRP	-0.023
RRIRYRPPRLPRPRPRPLQMPRP	-0.209
RRIRPRPPRLPRPRPRPTDTPRP	-0.00249
RRIRTRPPRLPRPRPRPIRHPRP	-0.438
RRIRIRPPRLPRPRPRPEDHPRP	-0.185
RRIRERPPRLPRPRPRPPWNPRP	-0.246
RRIRIRPPRLPRPRPRPAFEPRP	-0.117
RRIRLRPPRLPRPRPRPDQHPRP	-0.0962
RRIRCRPPRLPRPRPRPVEIPRP	-0.296
RRIRRRPPRLPRPRPRPFFKPRP	-0.177
RRIRNRPPRLPRPRPRPSLLPRP	-0.19
RRIRDRPPRLPRPRPRPACCPRP	0.512
RRIRSRPPRLPRPRPRPVLGPRP	0.447
RRIRLRPPRLPRPRPRPMEQPRP	0.168
RRIRERPPRLPRPRPRPCVSPRP	-0.0843
RRIRWRPPRLPRPRPRPPDRPRP	0.166
RRIRNRPPRLPRPRPRPCQAPRP	-0.112

Sequence	shrunken log2 fold change
RRIRSRPPRLPRPRPRPVAHPRP	-0.0951
RRIRMRPPRLPRPRPRPAGRPRP	0.725
RRIRKRPPRLPRPRPRPSNEPRP	-0.183
RRIRWRPPRLPRPRPRPALNPRP	0.801
RRIRSRPPRLPRPRPRPLPTPRP	0.446
RRIRLRPPRLPRPRPRPNYDPRP	-0.372
RRIRNRPPRLPRPRPRPHLWPRP	0.0922
RRIRVRPPRLPRPRPRPWCSPRP	-0.638
RRIRSRPPRLPRPRPRPEWSPRP	0.233
RRIRWRPPRLPRPRPRPRNLPRP	0.0777
RRIRQRPPRLPRPRPRPHGCPRP	0.0414
RRIRARPPRLPRPRPRPYTLPRP	-0.213
RRIRSRPPRLPRPRPRPTTMPRP	0.0245
RRIRSRPPRLPRPRPRPAMRPRP	0.588
RRIRQRPPRLPRPRPRPQYNPRP	-1.1
RRIRDRPPRLPRPRPRPAVQPRP	-0.00697
RRIRARPPRLPRPRPRPMQSPRP	0.43
RRIRSRPPRLPRPRPRPMDGPRP	-0.095
RRIRIRPPRLPRPRPRPYLLPRP	-1.52
RRIRDRPPRLPRPRPRPYVEPRP	-0.125
RRIRSRPPRLPRPRPRPICLPRP	0.259
RRIRTRPPRLPRPRPRPDHYPRP	-0.66
RRIRCRPPRLPRPRPRPQDLPRP	-0.472
RRIRLRPPRLPRPRPRPLQHPRP	0.212
RRIRARPPRLPRPRPRPWERPRP	0.12
